Patent publication US20250041437A1, “HUMANIZED MUC1 ANTIBODY AND ANTIBODY DRUG CONJUGATE” (Sun Pharma Advanced Research Company Limited, priority 2023, published 2025)

Columns and labels:
[1] = biological target: human MUC1 on cells (DA3-TM transfectants and human cancer cell lines SKOV3, COLO357, HT29 and others) (human) (UniProt P15941); assay: flow cytometry on DA3-TM cells; table row 2 of 5 from the top, concentration not printed in this figure
[2] = biological target: human MUC1 on cells (DA3-TM transfectants and human cancer cell lines SKOV3, COLO357, HT29 and others) (human) (UniProt P15941); assay: flow cytometry on DA3-TM cells; table row 3 of 5 from the top, concentration not printed in this figure
[3] = biological target: human MUC1 on cells (DA3-TM transfectants and human cancer cell lines SKOV3, COLO357, HT29 and others) (human) (UniProt P15941); assay: flow cytometry on DA3-TM cells; table row 4 of 5 from the top, concentration not printed in this figure
[4] = biological target: human MUC1 on cells (DA3-TM transfectants and human cancer cell lines SKOV3, COLO357, HT29 and others) (human) (UniProt P15941); assay: flow cytometry on DA3-TM cells; table row 5 of 5 from the top, concentration not printed in this figure

Sequence of human MUC1 on cells (DA3-TM transfectants and human cancer cell lines SKOV3, COLO357, HT29 and others) (human) (P15941 24-1255 limits assumed): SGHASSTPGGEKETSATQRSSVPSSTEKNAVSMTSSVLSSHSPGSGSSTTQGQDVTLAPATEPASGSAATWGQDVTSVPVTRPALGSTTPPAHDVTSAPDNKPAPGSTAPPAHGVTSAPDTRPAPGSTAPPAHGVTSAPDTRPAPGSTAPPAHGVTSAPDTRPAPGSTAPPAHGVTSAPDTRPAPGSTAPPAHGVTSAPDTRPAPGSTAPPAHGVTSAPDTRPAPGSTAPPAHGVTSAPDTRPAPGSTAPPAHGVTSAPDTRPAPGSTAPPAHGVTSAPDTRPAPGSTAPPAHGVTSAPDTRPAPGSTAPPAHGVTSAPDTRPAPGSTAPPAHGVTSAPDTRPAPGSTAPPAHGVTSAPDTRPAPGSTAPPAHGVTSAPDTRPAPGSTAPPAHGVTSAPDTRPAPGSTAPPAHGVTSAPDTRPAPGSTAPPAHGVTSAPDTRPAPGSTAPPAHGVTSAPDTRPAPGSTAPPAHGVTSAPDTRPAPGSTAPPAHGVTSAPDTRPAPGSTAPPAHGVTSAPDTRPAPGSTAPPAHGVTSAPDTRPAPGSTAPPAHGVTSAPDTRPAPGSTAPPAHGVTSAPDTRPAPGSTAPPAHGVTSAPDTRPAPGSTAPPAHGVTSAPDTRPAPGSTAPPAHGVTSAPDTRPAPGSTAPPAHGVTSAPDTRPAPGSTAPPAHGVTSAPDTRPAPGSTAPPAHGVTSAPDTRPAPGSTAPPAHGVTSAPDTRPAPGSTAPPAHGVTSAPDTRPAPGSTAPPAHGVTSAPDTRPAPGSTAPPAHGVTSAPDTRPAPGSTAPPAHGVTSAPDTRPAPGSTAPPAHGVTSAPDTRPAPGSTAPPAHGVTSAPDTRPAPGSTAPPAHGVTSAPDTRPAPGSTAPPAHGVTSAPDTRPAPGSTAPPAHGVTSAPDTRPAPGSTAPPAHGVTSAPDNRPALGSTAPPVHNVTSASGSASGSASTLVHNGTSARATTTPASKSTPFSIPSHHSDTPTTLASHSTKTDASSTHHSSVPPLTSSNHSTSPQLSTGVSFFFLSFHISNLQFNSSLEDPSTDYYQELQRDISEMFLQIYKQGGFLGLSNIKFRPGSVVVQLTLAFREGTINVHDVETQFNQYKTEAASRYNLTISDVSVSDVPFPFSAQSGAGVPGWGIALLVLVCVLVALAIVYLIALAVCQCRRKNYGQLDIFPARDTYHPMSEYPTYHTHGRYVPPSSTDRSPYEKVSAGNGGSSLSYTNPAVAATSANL

B1: Hu-5F3 (HM1 LM2) (antibody, V domains shown)
VH: EIQLVQSGAEVKKPGSSVKVSCKVTGHSITRGSSWHWMRQAPGQGLEWIGYIHYGGGTSYNPSLKSRATLTVDTSTNTAYMELSSLRSEDTAFYFCARYSYDITYRWFFDVWGQGTLVTVSS
VL: DIQMTQSPSTLSASVGDRVTITCRASQNIGTSIHWYQQKPGKAPKLLIKRASESISGVPSRFSGSGSGTEFTLTISSLQPDDFATYYCQQNNNWPLTFGQGTKVEVK
Geometric Mean : FL6-A [1]: 114
Geometric Mean : FL6-A [2]: 71.4
Geometric Mean : FL6-A [3]: 45.3
Geometric Mean : FL6-A [4]: 35.9
